Measured values: IntAct's records for PubMed 12050133

B1: Homeobox protein SIX3 (Mus musculus), Q62233 (parent)
chain: MVFRSPLDLYSSHFLLPNFADSHHCSLLLASSGGGSGASGGGGGAGGGGGGNRAGGGGAGGAGGGSGGGGSRAPPEELSMFQLPTLNFSPEQVASVCETLEETGDIERLGRFLWSLPVAPGACEAINKHESILRARAVVAFHTGNFRDLYHILENHKFTKESHGKLQAMWLEAHYQEAEKLRGRPLGPVDKYRVRKKFPLPRTIWDGEQKTHCFKERTRSLLREWYLQDPYPNPSKKRELAQATGLTPTQVGNWFKNRRQRDRAAAAKNRLQHQAIGPSGMRSLAEPGCPTHGSAESPSTAASPTTSVSSLTERADTGTSILSVTSSDSECDV

Variants of: B1
Conditions: with tle4_mouse Tle4, Q62441
tle4_mouse Tle4, Q62441, sequence (Q62441 whole entry): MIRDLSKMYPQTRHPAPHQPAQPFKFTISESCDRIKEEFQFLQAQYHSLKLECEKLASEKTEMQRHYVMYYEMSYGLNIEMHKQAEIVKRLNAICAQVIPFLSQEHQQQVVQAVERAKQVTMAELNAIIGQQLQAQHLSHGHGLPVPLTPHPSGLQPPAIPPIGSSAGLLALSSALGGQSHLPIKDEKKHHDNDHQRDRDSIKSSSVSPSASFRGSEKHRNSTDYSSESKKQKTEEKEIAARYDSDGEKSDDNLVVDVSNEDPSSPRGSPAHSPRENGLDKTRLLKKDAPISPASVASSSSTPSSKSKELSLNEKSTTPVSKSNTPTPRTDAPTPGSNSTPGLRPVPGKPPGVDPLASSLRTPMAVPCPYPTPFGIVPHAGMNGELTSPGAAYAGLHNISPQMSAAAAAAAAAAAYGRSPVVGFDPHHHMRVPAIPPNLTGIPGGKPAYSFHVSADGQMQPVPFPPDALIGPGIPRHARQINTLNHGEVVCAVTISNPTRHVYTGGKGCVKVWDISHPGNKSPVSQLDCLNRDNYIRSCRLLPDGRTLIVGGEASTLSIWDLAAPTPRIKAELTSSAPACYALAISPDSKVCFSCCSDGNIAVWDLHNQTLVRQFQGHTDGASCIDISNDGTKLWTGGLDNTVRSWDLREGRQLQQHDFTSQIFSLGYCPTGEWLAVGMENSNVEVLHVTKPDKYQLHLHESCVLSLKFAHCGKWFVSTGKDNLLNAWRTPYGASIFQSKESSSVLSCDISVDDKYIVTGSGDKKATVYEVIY

Variant	effect of a mutation on the interaction
MVFRSPLDLYSSHFLLPNFADSHHCSLLLASSGGGSGASGGGGGAGGGGGGNRAGGGGAGGAGGGSGGGGSRAPPEELSMFQLPTLNESPEQVASVCETLEETGDIERLGRFLWSLPVAPGACEAINKHESILRARAVVAFHTGNFRDLYHILENHKFTKESHGKLQAMWLEAHYQEAEKLRGRPLGPVDKYRVRKKFPLPRTIWDGEQKTHCFKERTRSLLREWYLQDPYPNPSKKRELAQATGLTPTQVGNWFKNRRQRDRAAAAKNRLQHQAIGPSGMRSLAEPGCPTHGSAESPSTAASPTTSVSSLTERADTGTSILSVTSSDSECDV [F88E]	decreasing interaction
